Several values for one entry are separate records, joined by “and”; a condition that tells them apart may be missing. Identical values can stand only once.

The target in this assay is F-type ATP synthase from bovine heart mitochondria (Bos taurus (bovine)). The experiment in a line: native gel or EMSA.

What is called stoichiometry N is a count of units in the complex or per binding partner. Turning to “F-type ATP synthase from bovine heart mitochondria (complex)”, the stoichiometry N was 2 and 4.

The values are drawn from paper doi:10.1101/2022.09.21.508839.
